Results on one protein are retold here after doi:10.1101/2023.10.06.561273, “Bacterial cell surface nanoenvironment requires a specialized chaperone to activate a peptidoglycan biosynthetic enzyme” (bioRxiv, 2023).

This series deals with the molecule itself. In words: SEC; renatured SpoVK-His6 on Superdex 200 Increase in renaturation buffer (500 mM L-arginine, 100 mM NaCl, pH 7.5), 0.75 ml/min; final peak.

B1: SpoVK-His6 (enzyme, B. subtilis, UniProt P27643 1-322, looked up)
chain: MLERAVTYKNNGQINIILNGQKQVLTNAEAEAEYQAALQKNEAKHGILKEIEKEMSALVGMEEMKRNIKEIYAWIFVNQKRAEQGLKVGKQALHMMFKGNPGTGKTTVARLIGKLFFEMNVLSKGHLIEAERADLVGEYIGHTAQKTRDLIKKSLGGILFIDEAYSLARGGEKDFGKEAIDTLVKHMEDKQHEFILILAGYSREMDHFLSLNPGLQSRFPISIDFPDYSVTQLMEIAKRMIDEREYQLSQEAEWKLKDYLMTVKSTTSPIKFSNGRFVRNVIEKSIRAQAMRLLMGDQYLKSDLMTIKSQDLSIKEEASGSA
notes: SpoVK, AAA+ ATPase of Bacillus subtilis; also called purified SpoVK
As usually defined, the stoichiometry N is a count of units in the complex or per binding partner. Consider B1, for which the “stoichiometry N” value is roughly 3.
